# Data as given in patent US20250011428A1.
# B1: CD3_2 (antibody, human IgG1, lambda)
# heavy: EVQLVESGGGLVQPGGSLKLSCAASGFTFNTYAMNWVRQASGKGLEWVGRIRSKYNNYATYYADSVKDRFTISRDDSKSTLYLQMNSLKTEDTAVYYCVRHGNFGNSYVSWFAYWGQGTLVTVSSASTKGPSVFPLAPSSKSTSGGTAALGCLVKDYFPEPVTVSWNSGALTSGVHTFPAVLQSSGLYSLSSVVTVPSSSLGTQTYICNVNHKPSNTKVDKRVEPKSCDKTHTCPPCPAPELCCHPSVFLFPPKPKDTLMISRTPEVTCVVVGLRHEDPEVKFNWYVDGVEVHNAKTKPREEQYCGCYRVVSVLTVLHQDWLNGKEYKCKVSNKALPAPIEKTISKAKGQPREPQVYTLPPSRDELTKNQVSLTCLVKGFYPSDIAVEWESNGQPENNYKTTPPVLDSDGSFFLYSKLTVDKSRWQQGNVFSCSVMHEALHNHYTQKSLSLSPGK
# light: QAVVTQEPSLTVSPGGTVTLTCRSSTGAVTTSNYANWVQQKPGQAPRGLIGGTNKRAPWTPARFSGSLLGDKAALTLSGAQPEDEAEYFCALWYSNLWVFGGGTKLTVLGQPKAAPSVTLFPPSSEELQANKATLVCLISDFYPGAVTVAWKADSSPVKAGVETTTPSKQSNNKYAASSYLSLTPEQWKSHRSYSCQVTHEGSTVEKTVAPTECS
# B2: IgG4_CD3_8_YTE (antibody)
# heavy: EVQLVESGGGLVQPGGSLKLSCAASGFTFNTYAMNWVRQASGKGLEWVGRIRSKYNNYATYYADSVKDRFTISRDDSKSTLYLQMNSLKTEDTAVYYCVRHGNFGNSYVSWFAYWGQGTLVTVSSASTKGPSVFPLAPCSRSTSESTAALGCLVKDYFPEPVTVSWNSGALTSGVHTFPAVLQSSGLYSLSSVVTVPSSSLGTKTYTCNVDHKPSNTKVDKRVESKYGPPCPSCPAPEFLCGPSVFLFPPKPKDTLYITREPEVTCVVVDVSQEDPEVQFNWYVDGVEVHNAKTKPREEQFNSTYRVVSVLTVLHQDWLNGKEYKCKVSNKGLPSSIEKTISKAKGQPREPQVYTLPPSQEEMTKNQVSLTCLVKGFYPSDIAVEWESNGQPENNYKTTPPVLDSDGSFFLYSRLTVDKSRWQEGNVFSCSVMHEALHNHYTQKSLSLSL
# light: QAVVTQEPSLTVSPGGTVTLTCRSSTGAVTTSNYANWVQQKPGQAPRGLIGGTNKRAPWTPARFSGSLLGDKAALTLSGAQPEDEAEYFCALWYSNLWVFGGGTKLTVLGQPKAAPSVTLFPPSSEELQANKATLVCLISDFYPGAVTVAWKADSSPVKAGVETTTPSKQSNNKYAASSYLSLTPEQWKSHRSYSCQVTHEGSTVEKTVAPTECS
# B3: IgG4_CD3_6 (antibody)
# heavy: EVQLVESGGGLVQPGGSLKLSCAASGFTFNTYAMNWVRQASGKGLEWVGRIRSKYNNYATYYADSVKDRFTISRDDSKSTLYLQMNSLKTEDTAVYYCVRHGNFGNSYVSWFAYWGQGTLVTVSSASTKGPSVFPLAPCSRSTSESTAALGCLVKDYFPEPVTVSWNSGALTSGVHTFPAVLQSSGLYSLSSVVTVPSSSLGTKTYTCNVDHKPSNTKVDKRVESKYGPPCPSCPAPEFCCGPSVFLFPPKPKDTLMISRTPEVTCVVVDVSQEDPEVQFNWYVDGVEVHNAKTKPREEQFNSTYRVVSVLTVLHQDWLNGKEYKCKVSNKGLPSSIEKTISKAKGQPREPQVYTLPPSQEEMTKNQVSLTCLVKGFYPSDIAVEWESNGQPENNYKTTPPVLDSDGSFFLYSRLTVDKSRWQEGNVFSCSVMHEALHNHYTQKSLSLSL
# light: QAVVTQEPSLTVSPGGTVTLTCRSSTGAVTTSNYANWVQQKPGQAPRGLIGGTNKRAPWTPARFSGSLLGDKAALTLSGAQPEDEAEYFCALWYSNLWVFGGGTKLTVLGQPKAAPSVTLFPPSSEELQANKATLVCLISDFYPGAVTVAWKADSSPVKAGVETTTPSKQSNNKYAASSYLSLTPEQWKSHRSYSCQVTHEGSTVEKTVAPTECS
# B4: IgG4_CD3_8 (antibody)
# heavy: EVQLVESGGGLVQPGGSLKLSCAASGFTFNTYAMNWVRQASGKGLEWVGRIRSKYNNYATYYADSVKDRFTISRDDSKSTLYLQMNSLKTEDTAVYYCVRHGNFGNSYVSWFAYWGQGTLVTVSSASTKGPSVFPLAPCSRSTSESTAALGCLVKDYFPEPVTVSWNSGALTSGVHTFPAVLQSSGLYSLSSVVTVPSSSLGTKTYTCNVDHKPSNTKVDKRVESKYGPPCPSCPAPEFLCGPSVFLFPPKPKDTLMISRTPEVTCVVVDVSQEDPEVQFNWYVDGVEVHNAKTKPREEQFNSTYRVVSVLTVLHQDWLNGKEYKCKVSNKGLPSSIEKTISKAKGQPREPQVYTLPPSQEEMTKNQVSLTCLVKGFYPSDIAVEWESNGQPENNYKTTPPVLDSDGSFFLYSRLTVDKSRWQEGNVFSCSVMHEALHNHYTQKSLSLSL
# light: QAVVTQEPSLTVSPGGTVTLTCRSSTGAVTTSNYANWVQQKPGQAPRGLIGGTNKRAPWTPARFSGSLLGDKAALTLSGAQPEDEAEYFCALWYSNLWVFGGGTKLTVLGQPKAAPSVTLFPPSSEELQANKATLVCLISDFYPGAVTVAWKADSSPVKAGVETTTPSKQSNNKYAASSYLSLTPEQWKSHRSYSCQVTHEGSTVEKTVAPTECS
# B5: CD3_3 (antibody, human IgG1, lambda)
# heavy: EVQLVESGGGLVQPGGSLKLSCAASGFTFNTYAMNWVRQASGKGLEWVGRIRSKYNNYATYYADSVKDRFTISRDDSKSTLYLQMNSLKTEDTAVYYCVRHGNFGNSYVSWFAYWGQGTLVTVSSASTKGPSVFPLAPSSKSTSGGTAALGCLVKDYFPEPVTVSWNSGALTSGVHTFPAVLQSSGLYSLSSVVTVPSSSLGTQTYICNVNHKPSNTKVDKRVEPKSCDKTHTCPPCPAPELCCHPSVFLFPPKPKDTLMISRTPEVTCVVTGLRDEDPEVKFNWYVDGVEVHNAKTKPREEQYCGCYRVVSVLTVLHQDWLNGKEYKCKVSNKALPAPIEKTISKAKGQPREPQVYTLPPSRDELTKNQVSLTCLVKGFYPSDIAVEWESNGQPENNYKTTPPVLDSDGSFFLYSKLTVDKSRWQQGNVFSCSVMHEALHNHYTQKSLSLSPGK
# light: QAVVTQEPSLTVSPGGTVTLTCRSSTGAVTTSNYANWVQQKPGQAPRGLIGGTNKRAPWTPARFSGSLLGDKAALTLSGAQPEDEAEYFCALWYSNLWVFGGGTKLTVLGQPKAAPSVTLFPPSSEELQANKATLVCLISDFYPGAVTVAWKADSSPVKAGVETTTPSKQSNNKYAASSYLSLTPEQWKSHRSYSCQVTHEGSTVEKTVAPTECS
# B6: IgG4_CD3_S228P_YTE (antibody)
# heavy: EVQLVESGGGLVQPGGSLKLSCAASGFTFNTYAMNWVRQASGKGLEWVGRIRSKYNNYATYYADSVKDRFTISRDDSKSTLYLQMNSLKTEDTAVYYCVRHGNFGNSYVSWFAYWGQGTLVTVSSASTKGPSVFPLAPCSRSTSESTAALGCLVKDYFPEPVTVSWNSGALTSGVHTFPAVLQSSGLYSLSSVVTVPSSSLGTKTYTCNVDHKPSNTKVDKRVESKYGPPCPPCPAPEFLGGPSVFLFPPKPKDTLYITREPEVTCVVVDVSQEDPEVQFNWYVDGVEVHNAKTKPREEQFNSTYRVVSVLTVLHQDWLNGKEYKCKVSNKGLPSSIEKTISKAKGQPREPQVYTLPPSQEEMTKNQVSLTCLVKGFYPSDIAVEWESNGQPENNYKTTPPVLDSDGSFFLYSRLTVDKSRWQEGNVFSCSVMHEALHNHYTQKSLSLSL
# light: QAVVTQEPSLTVSPGGTVTLTCRSSTGAVTTSNYANWVQQKPGQAPRGLIGGTNKRAPWTPARFSGSLLGDKAALTLSGAQPEDEAEYFCALWYSNLWVFGGGTKLTVLGQPKAAPSVTLFPPSSEELQANKATLVCLISDFYPGAVTVAWKADSSPVKAGVETTTPSKQSNNKYAASSYLSLTPEQWKSHRSYSCQVTHEGSTVEKTVAPTECS
# B7: IgG4_CD3_9_YTE (antibody)
# heavy: EVQLVESGGGLVQPGGSLKLSCAASGFTFNTYAMNWVRQASGKGLEWVGRIRSKYNNYATYYADSVKDRFTISRDDSKSTLYLQMNSLKTEDTAVYYCVRHGNFGNSYVSWFAYWGQGTLVTVSSASTKGPSVFPLAPCSRSTSESTAALGCLVKDYFPEPVTVSWNSGALTSGVHTFPAVLQSSGLYSLSSVVTVPSSSLGTKTYTCNVDHKPSNTKVDKRVESKYGPPCPSCPAPEFCGGPSVFLFPPKPKDTLYITREPEVTCVVVDVSQEDPEVQFNWYVDGVEVHNAKTKPREEQFNSTYRVVSVLTVLHQDWLNGKEYKCKVSNKGLPSSIEKTISKAKGQPREPQVYTLPPSQEEMTKNQVSLTCLVKGFYPSDIAVEWESNGQPENNYKTTPPVLDSDGSFFLYSRLTVDKSRWQEGNVFSCSVMHEALHNHYTQKSLSLSL
# light: QAVVTQEPSLTVSPGGTVTLTCRSSTGAVTTSNYANWVQQKPGQAPRGLIGGTNKRAPWTPARFSGSLLGDKAALTLSGAQPEDEAEYFCALWYSNLWVFGGGTKLTVLGQPKAAPSVTLFPPSSEELQANKATLVCLISDFYPGAVTVAWKADSSPVKAGVETTTPSKQSNNKYAASSYLSLTPEQWKSHRSYSCQVTHEGSTVEKTVAPTECS
# B8: IgG4_CD3_6_YTE (antibody)
# heavy: EVQLVESGGGLVQPGGSLKLSCAASGFTFNTYAMNWVRQASGKGLEWVGRIRSKYNNYATYYADSVKDRFTISRDDSKSTLYLQMNSLKTEDTAVYYCVRHGNFGNSYVSWFAYWGQGTLVTVSSASTKGPSVFPLAPCSRSTSESTAALGCLVKDYFPEPVTVSWNSGALTSGVHTFPAVLQSSGLYSLSSVVTVPSSSLGTKTYTCNVDHKPSNTKVDKRVESKYGPPCPSCPAPEFCCGPSVFLFPPKPKDTLYITREPEVTCVVVDVSQEDPEVQFNWYVDGVEVHNAKTKPREEQFNSTYRVVSVLTVLHQDWLNGKEYKCKVSNKGLPSSIEKTISKAKGQPREPQVYTLPPSQEEMTKNQVSLTCLVKGFYPSDIAVEWESNGQPENNYKTTPPVLDSDGSFFLYSRLTVDKSRWQEGNVFSCSVMHEALHNHYTQKSLSLSL
# light: QAVVTQEPSLTVSPGGTVTLTCRSSTGAVTTSNYANWVQQKPGQAPRGLIGGTNKRAPWTPARFSGSLLGDKAALTLSGAQPEDEAEYFCALWYSNLWVFGGGTKLTVLGQPKAAPSVTLFPPSSEELQANKATLVCLISDFYPGAVTVAWKADSSPVKAGVETTTPSKQSNNKYAASSYLSLTPEQWKSHRSYSCQVTHEGSTVEKTVAPTECS
# Legend:
# [1] = target: Gamma receptors FcγRI, FcγRII, and FcγRIII expressed on THP-1 cells; assay: cell-based or functional assay
# hC1q (human) = hC1q (human) (UniProt P02745); assay: SPR Biacore T200; IgG amine-coupled on CM5, hC1q as analyte; response normalized to parental (=100)
# hC1q (human), sequence (P02745 23-245 limits assumed, chain 1 of 3): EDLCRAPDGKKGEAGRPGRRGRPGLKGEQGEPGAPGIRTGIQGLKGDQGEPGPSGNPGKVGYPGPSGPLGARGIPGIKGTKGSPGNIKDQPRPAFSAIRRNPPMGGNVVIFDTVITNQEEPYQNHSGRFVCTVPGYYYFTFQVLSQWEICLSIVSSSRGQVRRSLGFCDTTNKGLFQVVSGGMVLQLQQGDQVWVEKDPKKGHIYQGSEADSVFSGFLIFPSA
# hC1q (human), sequence (P02746 28-253 limits assumed, chain 2 of 3, further chain): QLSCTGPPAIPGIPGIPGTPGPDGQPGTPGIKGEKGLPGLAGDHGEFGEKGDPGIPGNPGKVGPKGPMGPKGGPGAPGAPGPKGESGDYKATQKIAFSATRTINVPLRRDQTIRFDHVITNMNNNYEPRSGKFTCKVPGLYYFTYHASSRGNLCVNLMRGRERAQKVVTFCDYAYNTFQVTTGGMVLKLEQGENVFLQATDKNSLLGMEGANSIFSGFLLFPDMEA
# hC1q (human), sequence (P02747 29-245 limits assumed, chain 3 of 3, further chain): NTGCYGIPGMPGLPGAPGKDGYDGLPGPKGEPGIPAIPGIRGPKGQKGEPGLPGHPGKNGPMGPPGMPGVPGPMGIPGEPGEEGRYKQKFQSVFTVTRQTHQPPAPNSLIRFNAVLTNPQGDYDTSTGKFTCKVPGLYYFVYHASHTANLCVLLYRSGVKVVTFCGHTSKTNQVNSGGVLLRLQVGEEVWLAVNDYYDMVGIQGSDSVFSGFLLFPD
Binder,Maximum response in RGA assay (LU) [1] [LU],Maximum response at 20 nM hC1q (RU) (hC1q (human))
B1,25500,7
B2,6450,–
B3,12000,–
B4,7040,–
B5,23200,7
B6,34900,–
B7,5610,–
B8,7910,–
